Literature values as cited in paper PMC8044989.
pKd: −log10 of the molar value.

Biological target: RXFP3 (Homo sapiens) (UniProt Q9NSD7)
Chain of UniProt Q9NSD7 (Q9NSD7 whole entry): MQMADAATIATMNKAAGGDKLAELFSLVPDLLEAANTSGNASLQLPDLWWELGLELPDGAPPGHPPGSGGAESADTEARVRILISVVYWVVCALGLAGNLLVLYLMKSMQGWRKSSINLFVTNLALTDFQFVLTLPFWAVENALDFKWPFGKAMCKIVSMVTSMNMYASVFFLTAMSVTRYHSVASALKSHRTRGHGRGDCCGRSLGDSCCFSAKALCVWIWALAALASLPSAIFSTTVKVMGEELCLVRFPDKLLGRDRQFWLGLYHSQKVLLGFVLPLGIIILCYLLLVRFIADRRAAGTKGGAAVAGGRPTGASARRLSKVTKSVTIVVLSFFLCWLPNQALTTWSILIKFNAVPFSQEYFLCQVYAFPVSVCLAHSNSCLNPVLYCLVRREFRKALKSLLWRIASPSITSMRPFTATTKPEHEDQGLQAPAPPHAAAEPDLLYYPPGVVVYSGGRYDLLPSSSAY

pKd: 9.52
Substance: relaxin-3 (from UniProt Q8WXF3)
